Source: IntAct's records for PubMed 9468140

B1: Retinoblastoma-associated protein (Homo sapiens), P06400 (parent)
chain: MPPKTPRKTAATAAAAAAEPPAPPPPPPPEEDPEQDSGPEDLPLVRLEFEETEEPDFTALCQKLKIPDHVRERAWLTWEKVSSVDGVLGGYIQKKKELWGICIFIAAVDLDEMSFTFTELQKNIEISVHKFFNLLKEIDTSTKVDNAMSRLLKKYDVLFALFSKLERTCELIYLTQPSSSISTEINSALVLKVSWITFLLAKGEVLQMEDDLVISFQLMLCVLDYFIKLSPPMLLKEPYKTAVIPINGSPRTPRRGQNRSARIAKQLENDTRIIEVLCKEHECNIDEVKNVYFKNFIPFMNSLGLVTSNGLPEVENLSKRYEEIYLKNKDLDARLFLDHDKTLQTDSIDSFETQRTPRKSNLDEEVNVIPPHTPVRTVMNTIQQLMMILNSASDQPSENLISYFNNCTVNPKESILKRVKDIGYIFKEKFAKAVGQGCVEIGSQRYKLGVRLYYRVMESMLKSEEERLSIQNFSKLLNDNIFHMSLLACALEVVMATYSRSTSQNLDSGTDLSFPWILNVLNLKAFDFYKVIESFIKAEGNLTREMIKHLERCEHRIMESLAWLSDSPLFDLIKQSKDREGPTDHLESACPLNLPLQNNHTAADMYLSPVRSPKKKGSTTRVNSTANAETQATSAFQTQKPLKSTSLSLFYKKVYRLAYLRLNTLCERLLSEHPELEHIIWTLFQHTLQNEYELMRDRHLDQIMMCSMYGICKVKNIDLKFKIIVTAYKDLPHAVQETFKRVLIKEEEYDSIIVFYNSVFMQRLKTNILQYASTRPPTLSPIPHIPRSPYKFPSSPLRIPGGNIYISPLKSPYKISEGLPTPTKMTPRSRILVSIGESFGTSEKFQKINQMVCNSDRVLKRSAEGSNPPKPLKKLRFDIEGSDEADGSKHLPGESKFQQKLAEMTSTRTRMQKQKMNDSMDTSNKEEK

Variants of: B1
Conditions: with hdac1_human HDAC1, Q13547
Chain of hdac1_human HDAC1, Q13547 (Q13547 whole entry): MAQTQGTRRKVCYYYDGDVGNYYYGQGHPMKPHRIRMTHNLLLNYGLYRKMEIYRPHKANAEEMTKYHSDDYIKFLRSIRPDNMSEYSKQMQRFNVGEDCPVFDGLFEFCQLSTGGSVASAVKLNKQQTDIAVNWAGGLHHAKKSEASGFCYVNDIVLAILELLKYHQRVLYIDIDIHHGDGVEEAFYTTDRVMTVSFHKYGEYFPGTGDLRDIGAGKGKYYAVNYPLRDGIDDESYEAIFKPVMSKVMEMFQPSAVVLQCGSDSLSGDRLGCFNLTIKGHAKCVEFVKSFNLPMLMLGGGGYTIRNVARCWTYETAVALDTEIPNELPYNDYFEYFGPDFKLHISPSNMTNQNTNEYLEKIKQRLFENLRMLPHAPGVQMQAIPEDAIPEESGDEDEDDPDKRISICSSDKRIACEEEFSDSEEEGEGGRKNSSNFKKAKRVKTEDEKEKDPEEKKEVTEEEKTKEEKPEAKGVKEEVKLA

Row | effect of a mutation on the interaction | Variant
1 | disrupting interaction | C706F
